Test results reported in IntAct's records for PubMed 31515488.

B1: Protein FAM9B (Homo sapiens), Q8IZU0 (parent)
chain: MAAWGKKHAGKDPVRDECEERNRFTETREEDVTDEHGEREPFAETDEHTGANTKKPEDTAEDLTAKRKRMKMDKTCSKTKNKSKHALRKKQLKRQKRDYIHSLKLLNVLEEYITDEQKEEEEEEGEEEELIRIFQEQQKKWQQYRSVRRERLKEMKLLRDQFVKALEDFEDLCDRVFSDEDSELDN
partner: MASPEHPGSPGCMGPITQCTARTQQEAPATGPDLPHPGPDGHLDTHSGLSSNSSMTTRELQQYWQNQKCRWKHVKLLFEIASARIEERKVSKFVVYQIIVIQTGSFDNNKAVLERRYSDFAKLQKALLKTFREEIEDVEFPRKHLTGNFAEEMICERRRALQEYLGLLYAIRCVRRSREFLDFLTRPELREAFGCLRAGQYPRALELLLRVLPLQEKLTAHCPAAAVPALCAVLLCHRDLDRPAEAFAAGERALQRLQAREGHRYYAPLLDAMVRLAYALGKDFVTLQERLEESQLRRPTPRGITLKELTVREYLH
B2: Germ cell-less protein-like 1 (Homo sapiens), Q96IK5 (parent)
chain: MGSLSSRVLRQPRPALAQQAQGARAGGSARRPDTGDDAAGHGFCYCAGSHKRKRSSGSFCYCHPDSETDEDEEEGDEQQRLLNTPRRKKLKSTSKYIYQTLFLNGENSDIKICALGEEWSLHKIYLCQSGYFSSMFSGSWKESSMNIIELEIPDQNIDVEALQVAFGSLYRDDVLIKPSRVVAILAAACLLQLDGLIQQCGETMKETVNVKTVCGYYTSAGTYGLDSVKKKCLEWLLNNLMTHQNVELFKELSINVMKQLIGSSNLFVMQVEMDIYTALKKWMFLQLVPSWNGSLKQLLTETDVWFSKQRKDFEGMAFLETEQGKPFVSVFRHLRLQYIISDLASARIIEQDAVVPSEWLSSVYKQQWFAMLRAEQDSEVGPQEINKEELEGNSMRCGRKLAKDGEYCWRWTGFNFGFDLLVTYTNRYIIFKRNTLNQPCSGSVSLQPRRSIAFRLRLASFDSSGKLICSRTTGYQILTLEKDQEQVVMNLDSRLLIFPLYICCNFLYISPEKKN

Variants of: B1
Conditions: with snx20_human SNX20, Q7Z614

Row | effect of a mutation on the interaction | Variant
1 | with no effect | R23H

Variants of: B2
Conditions: with cul3_human CUL3, Q13618

Row | effect of a mutation on the interaction | Variant
2 | with no effect | MGSLSSRVLRQPRPALAQQAQGARAGGSARRPDTGDDAAGHGFCYCAGSHKRKRSSGSFCYCHPDSETDEDEEEGDEQQRLLNTPRRKKLKSTSKYIYQTLFLNGENSDIKICALGEEWSLHKIYLCQSGYFSSMFSGSWKESSMNIIELEIPDQNIDVEALQVAFGSLYRDDVLIKPSRVVAILAAACLLQLDGLIQQCGETMKETVNVKTVCGYYTSAGTYGLDSVKKKCLEWLLNNLMTHQNVELFKELSINVMKQLIGSSNLFVMQVEMDIYTALKKWMFLQLVPSWNGSLKQLLTETDVWFSKQRKDFEGMAFLETEQGKPFVSVFRHLRLQYIISDLASARIIEQDAVVPSEWLSSVYKQQWFAMLRAEQDSEVGPQEINKEELEGNSMRCGRKLAKDGEYCWRWTGFNFGFDLLVTYTNRYIIFKRNTLNQPCSGSVSLQPQRSIAFRLRLASFDSSGKLICSRTTGYQILTLEKDQEQVVMNLDSRLLIFPLYICCNFLYISPEKKN [R449Q]
3 | with no effect | MGSLSSRVLRQPRPALAQQAQGARAGGSARRPDTGDDAAGHGFCYCAGSHKRKRSSGSFCYCHPDSETDEDEEEGDEQQRLLNTPRRKKLKSTSKYIYQTLFLNGENSDIKICALGEEWSLHKIYLCQSGYFSSMFSGSWKESSMNVIELEIPDQNIDVEALQVAFGSLYRDDVLIKPSRVVAILAAACLLQLDGLIQQCGETMKETVNVKTVCGYYTSAGTYGLDSVKKKCLEWLLNNLMTHQNVELFKELSINVMKQLIGSSNLFVMQVEMDIYTALKKWMFLQLVPSWNGSLKQLLTETDVWFSKQRKDFEGMAFLETEQGKPFVSVFRHLRLQYIISDLASARIIEQDAVVPSEWLSSVYKQQWFAMLRAEQDSEVGPQEINKEELEGNSMRCGRKLAKDGEYCWRWTGFNFGFDLLVTYTNRYIIFKRNTLNQPCSGSVSLQPRRSIAFRLRLASFDSSGKLICSRTTGYQILTLEKDQEQVVMNLDSRLLIFPLYICCNFLYISPEKKN [I147V]
4 | with no effect | MGSLSSRVLRQPRPALAQQAQGARAGGSARRPDTGDDAAGHGFCYCAGSHKRKRSSGSFCYCHPDSETDEDEEEGDEQQRLLNTPRRKKLKSTSKYIYQTLFLNGENSDIKICALGEEWSLHKIYLCQSGYFSSMFSGSWKESSMNIIELEIPDQNIDVEALQVAFGSLYRDDVLIKPSRVVAILAAACLLQLDGLIQQCGETMKETVNVKTVCGYYTSAGTYGLDSVKKKCLEWLLNNLMTHQNVELFKELSINVMKQLIGSSNLFVMQVEMDIYTALKQWMFLQLVPSWNGSLKQLLTETDVWFSKQRKDFEGMAFLETEQGKPFVSVFRHLRLQYIISDLASARIIEQDAVVPSEWLSSVYKQQWFAMLRAEQDSEVGPQEINKEELEGNSMRCGRKLAKDGEYCWRWTGFNFGFDLLVTYTNRYIIFKRNTLNQPCSGSVSLQPRRSIAFRLRLASFDSSGKLICSRTTGYQILTLEKDQEQVVMNLDSRLLIFPLYICCNFLYISPEKKN [K281Q]

Variants of: B2
Conditions: with FAM167A

Row | effect of a mutation on the interaction | Variant
5 | with no effect | MGSLSSRVLRQPRPALAQQAQGARAGGSARRPDTGDDAAGHGFCYCAGSHKRKRSSGSFCYCHPDSETDEDEEEGDEQQRLLNTPRRKKLKSTSKYIYQTLFLNGENSDIKICALGEEWSLHKIYLCQSGYFSSMFSGSWKESSMNIIELEIPDQNIDVEALQVAFGSLYRDDVLIKPSRVVAILAAACLLQLDGLIQQCGETMKETVNVKTVCGYYTSAGTYGLDSVKKKCLEWLLNNLMTHQNVELFKELSINVMKQLIGSSNLFVMQVEMDIYTALKKWMFLQLVPSWNGSLKQLLTETDVWFSKQRKDFEGMAFLETEQGKPFVSVFRHLRLQYIISDLASARIIEQDAVVPSEWLSSVYKQQWFAMLRAEQDSEVGPQEINKEELEGNSMRCGRKLAKDGEYCWRWTGFNFGFDLLVTYTNRYIIFKRNTLNQPCSGSVSLQPQRSIAFRLRLASFDSSGKLICSRTTGYQILTLEKDQEQVVMNLDSRLLIFPLYICCNFLYISPEKKN [R449Q]
6 | with no effect | MGSLSSRVLRQPRPALAQQAQGARAGGSARRPDTGDDAAGHGFCYCAGSHKRKRSSGSFCYCHPDSETDEDEEEGDEQQRLLNTPRRKKLKSTSKYIYQTLFLNGENSDIKICALGEEWSLHKIYLCQSGYFSSMFSGSWKESSMNVIELEIPDQNIDVEALQVAFGSLYRDDVLIKPSRVVAILAAACLLQLDGLIQQCGETMKETVNVKTVCGYYTSAGTYGLDSVKKKCLEWLLNNLMTHQNVELFKELSINVMKQLIGSSNLFVMQVEMDIYTALKKWMFLQLVPSWNGSLKQLLTETDVWFSKQRKDFEGMAFLETEQGKPFVSVFRHLRLQYIISDLASARIIEQDAVVPSEWLSSVYKQQWFAMLRAEQDSEVGPQEINKEELEGNSMRCGRKLAKDGEYCWRWTGFNFGFDLLVTYTNRYIIFKRNTLNQPCSGSVSLQPRRSIAFRLRLASFDSSGKLICSRTTGYQILTLEKDQEQVVMNLDSRLLIFPLYICCNFLYISPEKKN [I147V]
7 | disrupting interaction strength | MGSLSSRVLRQPRPALAQQAQGARAGGSARRPDTGDDAAGHGFCYCAGSHKRKRSSGSFCYCHPDSETDEDEEEGDEQQRLLNTPRRKKLKSTSKYIYQTLFLNGENSDIKICALGEEWSLHKIYLCQSGYFSSMFSGSWKESSMNIIELEIPDQNIDVEALQVAFGSLYRDDVLIKPSRVVAILAAACLLQLDGLIQQCGETMKETVNVKTVCGYYTSAGTYGLDSVKKKCLEWLLNNLMTHQNVELFKELSINVMKQLIGSSNLFVMQVEMDIYTALKQWMFLQLVPSWNGSLKQLLTETDVWFSKQRKDFEGMAFLETEQGKPFVSVFRHLRLQYIISDLASARIIEQDAVVPSEWLSSVYKQQWFAMLRAEQDSEVGPQEINKEELEGNSMRCGRKLAKDGEYCWRWTGFNFGFDLLVTYTNRYIIFKRNTLNQPCSGSVSLQPRRSIAFRLRLASFDSSGKLICSRTTGYQILTLEKDQEQVVMNLDSRLLIFPLYICCNFLYISPEKKN [K281Q]
